We go through one protein from patent publication US20040220079.

Series [1] deals with T1, synthetic peptide PS1-gamma (LVNMAEGD).
T1 chain: LVNMAEGD

Series [2] addresses T2, synthetic peptide derived from the APP beta-secretase site (SEVKM/DAEFR).
T2 chain: SEVKMDAEFR

Series [3] has as its target T3, peptide derived from the processing site of presenilin 1 (SVNM/AEGD).
T3 chain: SVNMAEGD

In series [4] the target is oxidized bovine insulin B chain, P01317.
The target of series [5] is T4, synthetic peptide derived from the APP beta-secretase site containing the Swedish mutation (SEVNL/DAEFR).
T4 chain: SEVNLDAEFR

In series [6] the target is T5, synthetic peptide Nch (VGSGVLLSRK).
T5 chain: VGSGVLLSRK

Chain of oxidized bovine insulin B chain, P01317 (P01317 25-54): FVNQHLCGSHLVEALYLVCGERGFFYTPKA

B1: M2pd (modified M2 containing amino acids from Ala-8p to Ala326) (protein)
chain: TQHGIRLPLRSGLGGAPLGLRLPRETDEEPEEPGRRGSFVEMVDNLRGKSGQGYYVEMTVGSPPQTLNILVDTGSSNFAVGAAPHPFLHRYYQRQLSSTYRDLRKGVYVPYTQGKWEGELGTDLVSIPHGPNVTVRANIAAITESDKFFINGSNWEGILGLAYAEIARPDDSLEPFFDSLVKQTHVPNLFSLQLCGAGFPLNQSEVLASVGGSMIIGGIDHSLYTGSLWYTPIRREWYYEVIIVRVEINGQDLKMDCKEYNYDKSIVDSGTTNLRLPKKVFEAAVKSIKAASSTEKFPDGFWLGEQLVCWQAGTTPWNIFPVISLYLMGEVTNQSFRITILPQQYLRPVEDVATSQDDCYKFAISQSSTGTVMGAVIMEGFYVVFDRARKRIGFAVSACHVHDEFRTAAVEGPFVTLDMEDCGYNIPQTDESTLMTIAYVMAAICALFMLPLCLMVCQWRCLRCLRQQHDDFADDISLLK
On to B1, for which the hydrolytic sites entry in series [1] is “A single cleavage site was observed in synthetic peptide PS1-gamma”; in series [4], 2 sites; in series [6], 3 sites. Besides, the kcat/Km result in series [2] is recorded as “kcat/Km, 39.9 s^-1M^-1”; in series [3], “kcat/Km, 43.8 s^-1M^-1”; in series [5] it was “kcat/Km, 2450 s^-1M^-”. Moreover, the cleavage of proteins entry with Native proteins is given as “Native proteins were not cleaved by M2pd”. Also, the Km entry in series [3] is given as “Km, 15.2 mM”; in series [5], “Km, 1 mM”. The kcat result in series [3] is reported as “kcat, 0.67 s^-1”; in series [5] it was “kcat, 2.45 s^-1”. Moreover, the “fold increase of kcat/Km over native APP” value in series [5] was 60-fold increase of kcat/Km over that for native APP.
